pKd, pKi: −log10 of the molar value. Blank lines part the entries; values can stand above or below the substance they belong to.
What was measured:
[1] = target: Purified human plasmin (human); assay: protease inhibition assay (residual amidolytic activity, tight-binding inhibitor fit); enzyme (plasmin 3 nM; FVIIa/sTF 20 nM; pKLK and FXIa 1 nM each) incubated with inhibitor (10^-1 to 2 x 10^3 nM; up to 3 µM in Figure 3B) for 1 h at room temperature in TBS pH 7.5 (50 mM Tris-HCl, 100 mM NaCl), 0.1 mg BSA/mL, 2 mM Ca2+; synthetic substrate added to 1 KM; Ki corrected for substrate
[2] = target: Human factor VIIa in complex with soluble tissue factor (sTF, residues 1-219) (UniProt P08709); assay: as above
[3] = target: Purified human factor XIa (human) (UniProt P03951); assay: as above
Plasma kallikrein = Plasma kallikrein (UniProt P03952); assay: as above
[4] = target: Tissue plasminogen activator (Alteplase) (UniProt P00750); assay: SPR; Biacore T100, 25 °C; DIP-δplasmin or tPA amine-coupled to CM5 chip; analyte KD1-Y11T/L17R-K_(COOH) 100 to 2000 nM in HBS-P (20 mM HEPES pH 7.4, 100 mM NaCl, 0.005% P20), 10 µL/min, 6 min association, 10 min dissociation; regenerated with 20 mM EACA; 1:1 binding model, Kd = kd/ka
[5] = target: DIP-δplasmin (active-site blocked δplasmin; recombinant plasmin containing the protease domain and the first kringle domain, treated with DFP); assay: as above

Substance: Wild-type KD1 (Kunitz domain 1 of human tissue factor pathway inhibitor type-2) containing the IIa cleavage site (domain or fragment)
- pKi [1]: 8.22

Substance: KD1-Y11T/L17R-K_(COOH) (60-residue double mutant of human TFPI-2 Kunitz domain 1 with C-terminal IEK), E. coli expressed (domain or fragment)
- pKi [1]: 9.23

Substance: KD1-Y11T/L17R-K_(COOH) (60-residue double mutant of human TFPI-2 Kunitz domain 1 with C-terminal IEK), Pichia pastoris expressed (domain or fragment)
- pKi [1]: 9.23

The remaining lines, values ahead:

- pKi [1]: 9.05
Substance: KD1-L17R-K_(COOH) (60-residue single mutant of human TFPI-2 Kunitz domain 1 with C-terminal IEK), E. coli expressed (domain or fragment)

- pKi [2]: < 5.52
- pKi [3]: < 5.52
- pKi (Plasma kallikrein): < 5.52
- pKd [4]: 7.45
- koff [4]: 0.000105 s⁻¹
- kon [4]: 2910 M⁻¹ s⁻¹
- pKd [5]: 7.32
- koff [5]: 7.13e-05 s⁻¹
- kon [5]: 1490 M⁻¹ s⁻¹
Substance: KD1-Y11T/L17R-K_(COOH) (60-residue double mutant of human TFPI-2 Kunitz domain 1 with C-terminal IEK), expression host not stated for the experiment (domain or fragment)
